Measured values published in the supplement of paper PMC12338614.
± gives the uncertainty stated by the source.

B1: library; numbered along this chain (parent)
chain: MEVVDPQQLGMFTEGELMSVGMDTFIHRIDSTEVIYQPRRKRAKLIGKYLMGDLLGEGSYGKVKEVLDSETLCRRAVKILKKKKLRRIPNGEANVKKEIQLLRRLRHKNVIQLVDVLYNEEKQKMYMVMEYCVCGMQEMLDSVPEKRFPVCQAHGYFCQLIDGLEYLHSQGIVHKDIKPGNLLLTTGGTLKISDLGVAEALHPFAADDTCRTSQGSPAFQPPEIANGLDTFSGFKVDIWSAGVTLYNITTGLYPFEGDNIYKLFENIGKGSYAIPGDCGPPLSDLLKGMLEYEPAKRFSIRQIRQHSWFRKKHPPAEAPVPIPPSPDTKDRWRSMTVVPYLEDLHGADEDEDLFDIEDDIIYTQDFTVPGQVPEEEASHNGQRRGLPKAVCMNGTEAAQLSTKSRAEGRAPNPARKACSASSKIRRLSACKQQ

Variants of: B1
Assay: STK11 functional score (HeLa growth suppression), rescaled enrichment; synonymous median = 1, nonsense median = 0 (normalised score)
Details: with HeLa; variant type: missense
Procedure, shortened: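 The functional score takes the post/pre-selection log ratio, corrects it to wild type, rescales it to synonymous and nonsense medians, and merges it over codons and replicate transfections, with error from bootstrapping. Counts came from tiled gDNA amplicons sequenced on NextSeq (~2 million reads per tile). The libraries were POPCode codon-randomised, codon-optimised STK11 integrated by Bxb1 at an AAVS1 landing pad in HeLa, three regions with three transfections each.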
In the case of C418T, the STK11 functional score is reported as 1.58 ± 0.15.
R39A was tested, and the STK11 functional score was 1.12 ± 0.42.
In the case of L72R, the STK11 functional score is reported as 0.386 ± 0.11.
Variant L72Y has an STK11 functional score of 1.04 ± 0.11.
Q302S was tested, and the STK11 functional score was 1.47 ± 0.16.
Q302F showed an STK11 functional score of 1.14 ± 0.5.
For N247V, the STK11 functional score was 0.824 ± 0.1.
For A273I, the STK11 functional score was 1.46 ± 0.34.
L353N was tested, and the STK11 functional score was 1.56 ± 0.21.
For F354V, the STK11 functional score was 1.3 ± 0.21.
E291R gave an STK11 functional score of 1.53 ± 0.18.
For L167I, the STK11 functional score was 1.44 ± 0.25.
T328E showed an STK11 functional score of 1.5 ± 0.17.
N259L showed an STK11 functional score of 1.26 ± 0.31.
In the case of L263D, the STK11 functional score is reported as 0.549 ± 0.14.
In the case of L263T, the STK11 functional score is reported as 1.22 ± 0.17.
Variant K41G has an STK11 functional score of 1.25 ± 0.13.
Work on K41W yielded an STK11 functional score of 1.49 ± 0.17.
Variant L190D has an STK11 functional score of -0.215 ± 0.095.
For L17A, the STK11 functional score was 1.68 ± 0.37.
In the case of S213H, the STK11 functional score is reported as 1.68 ± 0.18.
D208C gave an STK11 functional score of 1.26 ± 0.38.
Work on A406K yielded an STK11 functional score of 1.28 ± 0.46.
In the case of Y131S, the STK11 functional score is reported as 1.18 ± 0.22.
P323V showed an STK11 functional score of 1.01 ± 0.11.
For I29R, the STK11 functional score was 1.14 ± 0.18.
Work on H168L yielded an STK11 functional score of 0.263 ± 0.078.
With R75I the STK11 functional score was 1.18 ± 0.099.
In the case of T24A, the STK11 functional score is reported as 1.36 ± 0.46.
T24G was tested, and the STK11 functional score was 1.43 ± 0.13.
G215W gave an STK11 functional score of 0.29 ± 0.091.
Y261P showed an STK11 functional score of 1.15 ± 0.38.
In the case of T363I, the STK11 functional score is reported as 0.824 ± 0.19.
Variant T363F has an STK11 functional score of 0.261 ± 0.1.
With R405I the STK11 functional score was 1.6 ± 0.22.
Variant K403V has an STK11 functional score of 0.598 ± 0.14.
A43S gave an STK11 functional score of 1.34 ± 0.25.
T395D gave an STK11 functional score of 1.56 ± 0.2.
For R42W, the STK11 functional score was 1.68 ± 0.52.
C151S was tested, and the STK11 functional score was 1.13 ± 0.38.
In the case of G163P, the STK11 functional score is reported as -0.013 ± 0.11.
L164N gave an STK11 functional score of 0.0402 ± 0.26.
For R103P, the STK11 functional score was 0.985 ± 0.18.
In the case of L160A, the STK11 functional score is reported as 1.07 ± 0.18.
In the case of G227R, the STK11 functional score is reported as 0.588 ± 0.47.
Work on L54G yielded an STK11 functional score of 1.22 ± 0.41.
Work on R304F yielded an STK11 functional score of 0.0963 ± 0.15.
P179M showed an STK11 functional score of 0.544 ± 0.13.
V4D gave an STK11 functional score of 1.45 ± 0.39.
Variant K122T has an STK11 functional score of 1.61 ± 0.44.
For G268C, the STK11 functional score was 1.25 ± 0.42.
L184R showed an STK11 functional score of 0.329 ± 0.17.
Work on K329Y yielded an STK11 functional score of 1.15 ± 0.096.
In the case of V63M, the STK11 functional score is reported as 0.802 ± 0.23.
In the case of V63I, the STK11 functional score is reported as 1.45 ± 0.27.
For K269Q, the STK11 functional score was 1.5 ± 0.53.
Work on D277R yielded an STK11 functional score of 1.34 ± 0.57.
In the case of L228Y, the STK11 functional score is reported as 1.25 ± 0.54.
Work on D365H yielded an STK11 functional score of 1.34 ± 0.34.
For D365L, the STK11 functional score was 1.27 ± 0.14.
With D284W the STK11 functional score was 0.576 ± 0.1.
Work on D284S yielded an STK11 functional score of 1.27 ± 0.11.
Variant D284N has an STK11 functional score of 1.29 ± 0.37.
I260M was tested, and the STK11 functional score was 1.32 ± 0.26.
Q170S was tested, and the STK11 functional score was 0.916 ± 0.13.
Y166T gave an STK11 functional score of 1.11 ± 0.67.
S169P showed an STK11 functional score of 0.391 ± 0.098.
For S169T, the STK11 functional score was 1.22 ± 0.74.
G10A showed an STK11 functional score of 1.38 ± 0.17.
G10W showed an STK11 functional score of 1.33 ± 0.084.
Variant H174Y has an STK11 functional score of 1.11 ± 0.27.
D330Q was tested, and the STK11 functional score was 0.163 ± 0.59.
With V77R the STK11 functional score was 0.469 ± 0.17.
Work on E130R yielded an STK11 functional score of 0.369 ± 0.14.
T249L gave an STK11 functional score of 1.08 ± 0.3.
P222C gave an STK11 functional score of 0.773 ± 0.62.
S428V was tested, and the STK11 functional score was 1.56 ± 0.28.
K84E gave an STK11 functional score of 0.845 ± 0.33.
K84W showed an STK11 functional score of 1.14 ± 0.17.
I360S gave an STK11 functional score of 1.11 ± 0.38.
For D352C, the STK11 functional score was 1.34 ± 0.34.
In the case of F309D, the STK11 functional score is reported as -0.479 ± 0.093.
L50V was tested, and the STK11 functional score was 0.846 ± 0.19.
With D355W the STK11 functional score was 1.57 ± 0.17.
With V95A the STK11 functional score was 1.28 ± 0.19.
D207V showed an STK11 functional score of 1.09 ± 0.41.
For R40K, the STK11 functional score was 1 ± 0.48.
In the case of K124V, the STK11 functional score is reported as 1.06 ± 0.11.
Variant K423V has an STK11 functional score of 1.28 ± 0.41.
Work on L102D yielded an STK11 functional score of 0.469 ± 0.2.
For V3S, the STK11 functional score was 1.35 ± 0.17.
G251A gave an STK11 functional score of 0.598 ± 0.42.
P326S showed an STK11 functional score of 1.36 ± 0.17.
S283V gave an STK11 functional score of 1.17 ± 0.29.
Variant L55S has an STK11 functional score of 0.693 ± 0.14.
For Y292R, the STK11 functional score was 1.22 ± 0.21.
L285Y gave an STK11 functional score of -0.477 ± 0.072.
With E70S the STK11 functional score was 0.896 ± 0.15.
In the case of F148K, the STK11 functional score is reported as -0.033 ± 0.18.
With E317W the STK11 functional score was 1.62 ± 0.16.
Variant I424L has an STK11 functional score of 1.34 ± 0.18.
For D359C, the STK11 functional score was 1.14 ± 0.33.
In the case of F366M, the STK11 functional score is reported as 1.48 ± 0.27.
In the case of Q112W, the STK11 functional score is reported as 0.604 ± 0.081.
Variant K311D has an STK11 functional score of 1.32 ± 0.29.
Variant K311H has an STK11 functional score of 0.501 ± 0.66.
G91N gave an STK11 functional score of 1.38 ± 0.089.
Variant G91F has an STK11 functional score of 0.906 ± 0.23.
Variant K287A has an STK11 functional score of 0.932 ± 0.14.
Variant D194F has an STK11 functional score of -0.213 ± 0.11.
In the case of R383V, the STK11 functional score is reported as 1.25 ± 0.38.
For D343T, the STK11 functional score was 1.53 ± 0.14.
With V390G the STK11 functional score was 1.39 ± 0.32.
R426C showed an STK11 functional score of 1.12 ± 0.4.
S69V showed an STK11 functional score of 0.644 ± 0.16.
V243R showed an STK11 functional score of 0.16 ± 0.099.
R415K gave an STK11 functional score of 1.17 ± 0.5.
Work on E33P yielded an STK11 functional score of 1.4 ± 0.33.
E33N was tested, and the STK11 functional score was 1.33 ± 0.15.
For E33C, the STK11 functional score was 1.11 ± 0.49.
For P275V, the STK11 functional score was 0.683 ± 0.34.
With C73S the STK11 functional score was 1.38 ± 0.43.
Variant C73L has an STK11 functional score of 1.19 ± 0.13.
With I356A the STK11 functional score was 1.5 ± 0.25.
With E375N the STK11 functional score was 1.47 ± 0.16.
For E375V, the STK11 functional score was 1.27 ± 0.12.
In the case of Q399K, the STK11 functional score is reported as 0.826 ± 0.39.
Variant A377E has an STK11 functional score of -0.00596 ± 0.15.
Variant A377T has an STK11 functional score of 1.59 ± 0.28.
Variant G408M has an STK11 functional score of 1.56 ± 0.17.
G171A was tested, and the STK11 functional score was 1.18 ± 0.4.
Variant I303N has an STK11 functional score of 1.54 ± 0.61.
Q305F gave an STK11 functional score of 1.51 ± 0.2.
In the case of S193Y, the STK11 functional score is reported as -0.104 ± 0.094.
For R331A, the STK11 functional score was 0.000385 ± 0.16.
P294V showed an STK11 functional score of 1.36 ± 0.4.
R310L showed an STK11 functional score of 1.37 ± 0.27.
For R301V, the STK11 functional score was 1.62 ± 0.17.
Work on D30A yielded an STK11 functional score of 1.7 ± 0.28.
In the case of K83A, the STK11 functional score is reported as 1.58 ± 0.36.
For Q137T, the STK11 functional score was 1.6 ± 0.28.
Work on W308G yielded an STK11 functional score of 0.086 ± 0.081.
For Q220K, the STK11 functional score was 0.583 ± 0.28.
In the case of T250K, the STK11 functional score is reported as 0.0557 ± 0.22.
For T250S, the STK11 functional score was 1.37 ± 0.27.
In the case of T250W, the STK11 functional score is reported as 1.48 ± 0.098.
Variant L344S has an STK11 functional score of 1.43 ± 0.18.
In the case of L344A, the STK11 functional score is reported as 1.51 ± 0.15.
P89H gave an STK11 functional score of 1.3 ± 0.17.
In the case of G233T, the STK11 functional score is reported as 1.7 ± 0.4.
With L80I the STK11 functional score was 0.964 ± 0.13.
For D358S, the STK11 functional score was 1.47 ± 0.25.
In the case of Q382M, the STK11 functional score is reported as 1.52 ± 0.27.
For M136P, the STK11 functional score was -0.132 ± 0.082.
E138W was tested, and the STK11 functional score was 1.19 ± 0.16.
With E138A the STK11 functional score was 1.09 ± 0.15.
Variant R409N has an STK11 functional score of 1.55 ± 0.12.
G56C was tested, and the STK11 functional score was 0.475 ± 0.15.
K312Y gave an STK11 functional score of 1.2 ± 0.1.
Work on F219R yielded an STK11 functional score of 0.1 ± 0.098.
Variant P411E has an STK11 functional score of 1.61 ± 0.33.
G242K showed an STK11 functional score of 0.078 ± 0.73.
L9P showed an STK11 functional score of 1.43 ± 0.21.
L9C gave an STK11 functional score of 1.54 ± 0.14.
G58R gave an STK11 functional score of -0.318 ± 0.1.
For K62C, the STK11 functional score was 1.4 ± 0.35.
L183R showed an STK11 functional score of 0.0747 ± 0.097.
